Experimental data as given in article PMC12143351.
Like-named read-outs stand apart in the source and are kept apart here.

Tests used:
[1] = target: WT-nsp5_(BA.1), SARS-CoV-2 nsp5 protease of the Omicron (BA.1) strain (SARS-CoV-2 (Omicron BA.1)); experiment: SEC-MALS
[2] = target: WT-nsp5_(BA.1), SARS-CoV-2 nsp5 protease of the Omicron (BA.1) strain (SARS-CoV-2 (Omicron BA.1)); experiment: SEC-MALS; remark: listed apart in the source

WT-nsp5_(BA.1), SARS-CoV-2 nsp5 protease of the Omicron (BA.1) strain (enzyme)
percent dimeric [1]: 72%
stoichiometry N [1]: 2
percent dimeric [2]: 64%
